This passage reports amount of pE(A) detected on Western blot results from patent publication US20090246219A1.

This assay concerns the target recombinant truncated protein E pE22-160, designated pE(A) (H. influenzae (NTHi strain 772)). The assay is described as follows: Western blot of pE(A) probed with IgD(λ). (In western blotting, separated proteins are transferred to a membrane and probed.)

Regarding “human IgD(λ) myeloma protein (human IgD myeloma whole serum IgD(λ), The Binding Site, Birmingham, England) (antibody)”, the amount of pE(A) detected on Western blot stood at 0.01 microg.
